Data set [1] can be described thus: CSF MTX and glucarpidase (Example 2). How it is done:
Methods. In a phase I dose-finding study of planned-use glucarpidase following HD-MTX, patients were treated with either MTX at 3 g/m^2, 6 g/m^2, or 8 g/m^2. Glucarpidase was dose-reduced to 1000 U or 2000 U and given 24 hours after MTX. […] MTX levels following glucarpidase were determined via mass spectrometry as immunoassay fails to differentiate MTX from byproducts.

The conditions of data set [2]: cited from earlier work.
Data set [3] in a line: Serum MTX levels before and after glucarpidase, mass spectrometry (Example 1).
Experimental: (§2) Patients were enrolled into two cohorts with Cohort A receiving MTX 3 g/m^2 and Cohort B receiving MTX 6 g/m^2. Glucarpidase 2000 U or 1000 U was administered 24 hours following the initiation of MTX infusion. […] In the present Example, rituximab was administered on Day 1, MTX on Day 2, glucarpidase Day 3, followed by an 11-day non-treatment period before the start of the next cycle.
The test system of data set [4] is CNSL. The note with it: cited from earlier work.
Data set [5] can be described thus: CSF MTX concentrations following glucarpidase (Example 1). Conditions: evaluated in two patients. In kind it is in vivo, human. How it is done:
(§1) Cerebrospinal fluid (CSF) was collected throughout treatment. Serum was collected for analysis of anti-glucarpidase antibodies. […] Rituximab was always dosed at 500 mg/m^2.

For data set [6] the following is noted: cited from earlier work. This is another data set of the same source.
Data set [7] in a line: Serum MTX level after outpatient HD-MTX with glucarpidase (Example 3). Type of data set: in vivo. The note with it: human, intravenous, outpatient MTX 3.5 g/m^2, glucarpidase 2000 U next day, 7 treatments, 3 patients, all cases, read-out: serum MTX levels at 48 hours.
Details of data set [8]: species or system human. The note with it: in vivo.
In data set [9] the target is T1, glucarpidase enzymatic activity (Pseudomonas sp., UniProt P06621).
T1 sequence (P06621 23-415): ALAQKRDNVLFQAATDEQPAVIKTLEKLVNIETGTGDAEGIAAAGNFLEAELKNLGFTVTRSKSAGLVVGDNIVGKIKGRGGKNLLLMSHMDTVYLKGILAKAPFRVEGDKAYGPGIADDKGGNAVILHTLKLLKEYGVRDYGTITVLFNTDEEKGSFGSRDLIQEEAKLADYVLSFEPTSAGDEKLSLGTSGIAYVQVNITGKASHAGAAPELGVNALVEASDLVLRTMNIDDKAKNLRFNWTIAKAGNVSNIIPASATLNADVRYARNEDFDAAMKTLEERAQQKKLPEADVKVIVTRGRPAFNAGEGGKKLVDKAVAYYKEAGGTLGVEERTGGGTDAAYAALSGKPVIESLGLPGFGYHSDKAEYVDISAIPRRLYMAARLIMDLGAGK
The note with it: serum from four of 22 patients with an antibody response; cited from earlier work.

The format of data set [10] is in vivo, human.
A short description of data set [11]: Adverse events (Example 1). The arrangement: species or system human. Conditions: in vivo. The text has this: A cycle is typically 14±7 days.
Data set [12] has as its system anti-glucarpidase antibodies. The note with it: in vivo; cited from earlier work.
Data set [13] deals with anti-glucarpidase antibodies. The experiment in a line: Anti-glucarpidase antibodies in serum (Example 1). Type of data set: in vivo, human. The note with it: two patients, one result per patient. How it is done: as §1
For data set [14] the following is noted: in vivo; cited from earlier work.
For data set [15] the following is noted: cited from earlier work. This is another data set of the same source.
In data set [16] the test system is anti-glucarpidase antibodies. The arrangement: species or system human. Conditions: in vivo.
For data set [17] the following is noted: in vivo.
Experimental: as §2
Where [18] appears, read: around 24 hours after glucarpidase, 8 doses.
[19] abbreviates: typically around 24 hours after glucarpidase.
The mark [20] stands for this setting: setting of MTX-related acute kidney injury.

“Also recorded” adds a separate entry of the source. Where two headings read alike, the source gives them in different places.

Results on 2 molecules are retold here after patent publication US20230000956A1, “COMBINATION THERAPY WITH GLUCARPIDASE WITH METHOTREXATE/RITUXIMAB TO TREAT CNS LYMPHOMA” (MEMORIAL SLOAN KETTERING CANCER CENTER, priority 2019, published 2023).

Take `CN(Cc1cnc2nc(N)nc(N)c2n1)c1ccc(C(=O)N[C@@H](CCC(=O)O)C(=O)O)cc1` [MTX, Methotrexate]: the “MTX concentrations in CSF (potentially cytotoxic)” value in data set [1] (25 hours following MTX administration (1 hour after glucarpidase)) is 10^−6 M. Further, in data set [1] (in vivo), the “CSF MTX concentrations following glucarpidase (conclusion)” value was “remain at cytotoxic levels”. The “blood brain barrier penetration” value in data set [2] (high doses (>1.5 g/m^2) as a rapid infusion) is reported as “penetrates the blood brain barrier”. Also, the “share cleared via renal excretion” value in [2] (in vivo) is 70-90%. In data set [3] (setting [18]), the “median elevation of MTX (transient increase)” value worked out at 290 nmol/L and the “range of elevation of MTX (transient increase)” value lay within 119 to 516 nmol/L. Besides, in data set [3] (in 23/24 doses), the “serum MTX levels within 15 minutes of glucarpidase” value is reported as “less than 100 nmol/L”. Also, in data set [3] (setting [19]), the “doses followed by transient increase in MTX levels above 100 nmol/L” value was 8 of 24 and the “share of doses followed by transient increase in MTX levels above 100 nmol/L” value is recorded as 33%. Moreover, in data set [4] (PCNSL, upfront setting), the “overall response rates (ORR)” value is “up to 74%”. Besides, in [4] (retrospective analysis of 357 patients, regimens with doses 3 g/m^2), the survival benefit entry was “statistically significant survival benefit”. In addition, the “CSF methotrexate concentrations following glucarpidase administration” value in [5] is given as “remained therapeutic”. Further, in [6] (HD-MTX), the “adults sustaining acute kidney injury” value is on record as 2-12%. In addition, the “incidence of systemic toxicities (hepatic injury, pneumonitis, bone marrow suppression)” value in data set [6] (in vivo) is reported as below 10%. In addition, in data set [6] (setting [20]), the “patients requiring MTX dose reduction” value is 14-44% and the “patients with premature cessation of therapy” value is 5-8%. In addition, in data set [7], the concentration at 48 h was below 100 nM.

B1: glucarpidase: recombinant bacterial enzyme that cleaves serum MTX to inactive metabolites (SEQ ID NO: 1) (protein)
chain: T1 sequence (P06621 23-415)
As to B1, in [8], the “grade 3 events” value is “no grade 3 events” and the “grade 4 events” value is on record as “only one grade 4 anaphylactic reaction”. Also, in data set [9], the “inhibition of glucarpidase enzymatic activity in vitro by patient serum” value was 28-58%. In data set [1] (in vivo), the “glucarpidase in the CSF” value is reported as “not detected”. In [10] (glucarpidase 1000 U (14 treatments) or 2000 U (36 treatments), following 49/50 doses), the “reduction in serum MTX levels within 15 minutes” value is reported as at least 95%. Moreover, the “doses with at least a 95% reduction in serum MTX levels within 15 minutes” value in data set [10] (glucarpidase 1000 U or 2000 U) is given as 49/50. Besides, in [10] (in vivo), the “decrease in serum MTX levels, remaining dose” value is on record as 93%. Besides, in data set [10] (low-dose glucarpidase), the “efficacy after repeated doses and antibody formation” value was “remains effective even after repeated doses and despite the formation of anti-glucarpidase antibodies”; the “reduction of MTX levels (conclusion)” value was above 95%. For the same molecule, the “adverse events associated with glucarpidase administration” value in [11] was “no adverse events associated with glucarpidase administration”. Also, in data set [12], the “antibody formation post glucarpidase” value is 37-43% and the patients developing antibodies result is reported as “roughly 17%”. In data set [13], the “anti-glucarpidase antibody titer levels” value was “detectable anti-glucarpidase antibodies; also recorded: did not develop any anti-glucarpidase antibodies”. In addition, in data set [3] (glucarpidase 2000 U or 1000 U), the “doses with at least a 95% reduction in serum MTX levels within 15 minutes” value is 23/24 and the “share of doses with at least a 95% reduction in serum MTX levels within 15 minutes” value was 96%. In data set [3] (glucarpidase 2000 U or 1000 U 24 h after MTX 3 or 6 g/m^2, in 23/24 doses), the “reduction in serum MTX levels within 15 minutes of administration” value was at least 95%. In data set [3] (low-dose glucarpidase 24 hours after MTX), the “effect on serum MTX levels (summary)” value is given as “rapid reduction in serum MTX levels”. Further, in data set [14], the half-life is 6 to 9 h and the volume of distribution is listed as 3.6 L. Besides, the “safety and efficacy at approved dose” value in [15] (50 units/kg, patients with delayed MTX elimination from renal impairment) was “safe and efficacious”. Also, the “patients reporting nausea, vomiting, hypotension, paresthesias, flushing, and headache” value in data set [15] (in vivo) is reported as below 3%. Further, the “patients with anti-glucarpidase antibodies detected” value in data set [16] was 6 of 8. Also, in data set [17], the “decrease in serum MTX levels, remaining dose” value was found to be 93%.
